Experimental data taken from patent publication US20260201064A1 (ISU ABXIS, published 2026).

Molecular target: T1, recombinant human ASM protein (human, UniProt P17405 47-630)
T1 construct: Recombinant human ASM in solution; also called acid sphingomyelinase (ASM) protein
T1 sequence: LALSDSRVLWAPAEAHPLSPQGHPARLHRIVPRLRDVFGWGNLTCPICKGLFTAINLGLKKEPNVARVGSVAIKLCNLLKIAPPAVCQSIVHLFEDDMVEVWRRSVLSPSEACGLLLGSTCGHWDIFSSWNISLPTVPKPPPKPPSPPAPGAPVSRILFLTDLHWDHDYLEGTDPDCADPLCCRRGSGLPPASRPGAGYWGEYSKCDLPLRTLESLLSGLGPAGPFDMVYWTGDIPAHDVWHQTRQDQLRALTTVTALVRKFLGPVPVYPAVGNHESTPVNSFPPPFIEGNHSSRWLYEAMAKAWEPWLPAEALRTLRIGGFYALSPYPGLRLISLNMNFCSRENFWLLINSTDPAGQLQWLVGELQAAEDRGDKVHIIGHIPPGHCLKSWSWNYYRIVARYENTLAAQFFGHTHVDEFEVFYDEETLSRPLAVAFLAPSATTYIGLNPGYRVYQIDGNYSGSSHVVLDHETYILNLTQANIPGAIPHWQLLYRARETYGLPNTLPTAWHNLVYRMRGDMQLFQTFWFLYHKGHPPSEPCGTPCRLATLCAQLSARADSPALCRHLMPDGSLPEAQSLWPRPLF
Test: BLI (Octet), antibody on AHC sensor
Method: The binding affinity, to the ASM protein, of the produced antibodies specifically binding to the ASM protein and the interactive dynamics therebetween were measured using an Octet® QK384 system (Pall Life Sciences).
First, an antibody specifically binding to the ASM protein produced in Example 1 was captured using an anti-human IgG Fc capture (AHC) biosensor, and 1.25, 2.5, 5, 10, or 20 nM recombinant human ASM protein solution was added thereto. […] The association constant (Kₐ), dissociation constant (Kd), and equilibrium dissociation constant (KD) for each antibody were determined using Octet® analysis software (Pall Life® Sciences). As a result, the binding affinities, to the human ASM protein, of the antibodies with mutations in the heavy chain CDR regions of the antibody #9104 as depicted in Table 1 are shown in Table 5, and the binding affinities, to the human ASM protein, of the antibodies with mutations of the light chain CDR regions in the antibody #9104 as depicted in Table 2 are shown in Table 6.

| Binder | Kd [nM] | koff [s⁻¹] | kon [M⁻¹ s⁻¹] |
| --- | --- | --- | --- |
| #9104v-H02 (antibody, human IgG4 S228P, lambda, V domains shown, Full-length IgG, lambda) VH: EVQLLESGGGLVQPGGSLRLSCAASGFTFSNYYMSWVRQAPGKGLEWVSGIYFGSGDIRYADSVKGRFTISRDNSKNTLYLQMNSLRAEDTAVYYCARDTPGFDYWGQGTLVTVSS VL: QSVLTQPPSASGTPGQRVTISCTGSSSNIGNNAVNWYQQLPGTAPKLLIYYDSHRPSGVPDRFSGSKSGTSASLAISGLRSEDEADYYCGAWDYSLSAYVFGGGTKLTVLG | 1.2 | 0.000333 | 278000 |
| #9104v-H05 (antibody, human IgG4 S228P, lambda, V domains shown, Full-length IgG, lambda) VH: EVQLLESGGGLVQPGGSLRLSCAASGFTFSNYYMSWVRQAPGKGLEWVSGIYYGGVKIYYADSVKGRFTISRDNSKNTLYLQMNSLRAEDTAVYYCARDTPGFDYWGQGTLVTVSS VL: QSVLTQPPSASGTPGQRVTISCTGSSSNIGNNAVNWYQQLPGTAPKLLIYYDSHRPSGVPDRFSGSKSGTSASLAISGLRSEDEADYYCGAWDYSLSAYVFGGGTKLTVLG | 1.03 | 0.000177 | 171000 |
| #9104v-H10 (antibody, human IgG4 S228P, lambda, V domains shown, Full-length IgG, lambda) VH: EVQLLESGGGLVQPGGSLRLSCAASGFTFSNYYMSWVRQAPGKGLEWVSGIYYGNGIPYYADSVKDRFTISRDNSKNTLYLQMNSLRAEDTAVYYCARDTPGFDYWGQGTLVTVSS VL: QSVLTQPPSASGTPGQRVTISCTGSSSNIGNNAVNWYQQLPGTAPKLLIYYDSHRPSGVPDRFSGSKSGTSASLAISGLRSEDEADYYCGAWDYSLSAYVFGGGTKLTVLG | 0.651 | 0.000154 | 237000 |
| #9104v-H11 (antibody, human IgG4 S228P, lambda, V domains shown, Full-length IgG, lambda) VH: EVQLLESGGGLVQPGGSLRLSCAASGFTFSNYYMSWVRQAPGKGLEWVSGIYYGSGIPYYADSVKERFTISRDNSKNTLYLQMNSLRAEDTAVYYCARDTPGFDYWGQGTLVTVSS VL: QSVLTQPPSASGTPGQRVTISCTGSSSNIGNNAVNWYQQLPGTAPKLLIYYDSHRPSGVPDRFSGSKSGTSASLAISGLRSEDEADYYCGAWDYSLSAYVFGGGTKLTVLG | 0.781 | 0.000195 | 250000 |
| #9104v-H13 (antibody, human IgG4 S228P, lambda, V domains shown, Full-length IgG, lambda) VH: EVQLLESGGGLVQPGGSLRLSCAASGFTFSNYYMSWVRQAPGKGLEWVSGIYYGSGIPYYANSVKGRFTISRDNSKNTLYLQMNSLRAEDTAVYYCARDTPGFDYWGQGTLVTVSS VL: QSVLTQPPSASGTPGQRVTISCTGSSSNIGNNAVNWYQQLPGTAPKLLIYYDSHRPSGVPDRFSGSKSGTSASLAISGLRSEDEADYYCGAWDYSLSAYVFGGGTKLTVLG | 0.803 | 0.000185 | 231000 |
| #9104v-H14 (antibody, human IgG4 S228P, lambda, V domains shown, Full-length IgG, lambda) VH: EVQLLESGGGLVQPGGSLRLSCAASGFTFSNYYMSWVRQAPGKGLEWVSGIYYGSGKPYYADSVKGRFTISRDNSKNTLYLQMNSLRAEDTAVYYCARDTPGFDYWGQGTLVTVSS VL: QSVLTQPPSASGTPGQRVTISCTGSSSNIGNNAVNWYQQLPGTAPKLLIYYDSHRPSGVPDRFSGSKSGTSASLAISGLRSEDEADYYCGAWDYSLSAYVFGGGTKLTVLG | 0.857 | 0.000281 | 328000 |
| #9104v-H17 (antibody, human IgG4 S228P, lambda, V domains shown, Full-length IgG, lambda) VH: EVQLLESGGGLVQPGGSLRLSCAASGFTFSNYYMSWVRRAPGKGLEWVSGIYYGSGTPYYAASVKGRFTISRDNSKNTLYLQMNSLRAEDTAVYYCARDTPGFDYWGQGTLVTVSS VL: QSVLTQPPSASGTPGQRVTISCTGSSSNIGNNAVNWYQQLPGTAPKLLIYYDSHRPSGVPDRFSGSKSGTSASLAISGLRSEDEADYYCGAWDYSLSAYVFGGGTKLTVLG | 0.719 | 0.000243 | 338000 |
| #9104v-H18 (antibody, human IgG4 S228P, lambda, V domains shown, Full-length IgG, lambda) VH: EVQLLESGGGLVQPGGSLRLSCAASGFTFSNYYMSWVRQAPGKGLEWVSGIYYGSGTPYYSDSVKGRFTISRDNSKNTLYLQMNSLRAEDTAVYYCARDTPGFDYWGQGTLVTVSS VL: QSVLTQPPSASGTPGQRVTISCTGSSSNIGNNAVNWYQQLPGTAPKLLIYYDSHRPSGVPDRFSGSKSGTSASLAISGLRSEDEADYYCGAWDYSLSAYVFGGGTKLTVLG | 2.69 | 0.000264 | 97900 |
| #9104v-H19 (antibody, human IgG4 S228P, lambda, V domains shown, Full-length IgG, lambda) VH: EVQLLESGGGLVQPGGSLRLSCAASGFTFSNYYMSWVRQAPGKGLEWVSGIYYGSGVPYYADSVKGRFTISRDNSKNTLYLQMNSLRAEDTAVYYCARDTPGFDYWGQGTLVTVSS VL: QSVLTQPPSASGTPGQRVTISCTGSSSNIGNNAVNWYQQLPGTAPKLLIYYDSHRPSGVPDRFSGSKSGTSASLAISGLRSEDEADYYCGAWDYSLSAYVFGGGTKLTVLG | 0.692 | 0.000184 | 266000 |
| #9104v-H22 (antibody, human IgG4 S228P, lambda, V domains shown, Full-length IgG, lambda) VH: EVQLLESGGGLVQPGGSLRLSCAASGFTFSNYYMSWVRQAPGKGLEWVSGLYYGGGTPYYADSVKGRFTISRDNSKNTLYLQMNSLRAEDTAVYYCARDTPGFDYWGQGTLVTVSS VL: QSVLTQPPSASGTPGQRVTISCTGSSSNIGNNAVNWYQQLPGTAPKLLIYYDSHRPSGVPDRFSGSKSGTSASLAISGLRSEDEADYYCGAWDYSLSAYVFGGGTKLTVLG | 0.798 | 0.000157 | 197000 |
| #9104v-H24 (antibody, human IgG4 S228P, lambda, V domains shown, Full-length IgG, lambda) VH: EVQLLESGGGLVQPGGSLRLSCAASGFTFSNYYMSWVRQAPGKGLEWVSGLYYGSGIPYYADSVKGRFTISRDNSKNTLYLQMNSLRAEDTAVYYCARDTPGFDYWGQGTLVTVSS VL: QSVLTQPPSASGTPGQRVTISCTGSSSNIGNNAVNWYQQLPGTAPKLLIYYDSHRPSGVPDRFSGSKSGTSASLAISGLRSEDEADYYCGAWDYSLSAYVFGGGTKLTVLG | 1.01 | 0.000206 | 204000 |
| #9104v-H25 (antibody, human IgG4 S228P, lambda, V domains shown, Full-length IgG, lambda) VH: EVQLLESGGGLVQPGGSLRLSCAASGFTFSNYYMSWVRQAPGKGLEWVSGTYYASGGIYYADSVKGRFTISRDNSKNTLYLQMNSLRAEDTAVYYCARDTPGFDYWGQGTLVTVSS VL: QSVLTQPPSASGTPGQRVTISCTGSSSNIGNNAVNWYQQLPGTAPKLLIYYDSHRPSGVPDRFSGSKSGTSASLAISGLRSEDEADYYCGAWDYSLSAYVFGGGTKLTVLG | 0.917 | 0.00019 | 207000 |
| #9104v-H26 (antibody, human IgG4 S228P, lambda, V domains shown, Full-length IgG, lambda) VH: EVQLLESGGGLVQPGGSLRLSCAASGFTFSNYYMSWVRQAPGKGLEWVSGTYYASGNAYYADSVKGRFTISRDNSKNTLYLQMNSLRAEDTAVYYCARDTPGFDYWGQGTLVTVSS VL: QSVLTQPPSASGTPGQRVTISCTGSSSNIGNNAVNWYQQLPGTAPKLLIYYDSHRPSGVPDRFSGSKSGTSASLAISGLRSEDEADYYCGAWDYSLSAYVFGGGTKLTVLG | 1.74 | 0.000305 | 175000 |
| #9104v-H27 (antibody, human IgG4 S228P, lambda, V domains shown, Full-length IgG, lambda) VH: EVQLLESGGGLVQPGGSLRLSCAASGFTFSNYYMSWVRQAPGKGLEWVSGTYYDSGYVYYADSVKGRFTISRDNSKNTLYLQMNSLRAEDTAVYYCARDTPGFDYWGQGTLVTVSS VL: QSVLTQPPSASGTPGQRVTISCTGSSSNIGNNAVNWYQQLPGTAPKLLIYYDSHRPSGVPDRFSGSKSGTSASLAISGLRSEDEADYYCGAWDYSLSAYVFGGGTKLTVLG | 0.598 | 0.000165 | 276000 |
| #9104v-H30 (antibody, human IgG4 S228P, lambda, V domains shown, Full-length IgG, lambda) VH: EVQLLESGGGLVQPGGSLRLSCAASGFTFSNYYMSWVRQAPGKGLEWVSGTYYSSGGIYYADSVKGRFTISRDNSKNTLYLQMNSLRAEDTAVYYCARDTPGFDYWGQGTLVTVSS VL: QSVLTQPPSASGTPGQRVTISCTGSSSNIGNNAVNWYQQLPGTAPKLLIYYDSHRPSGVPDRFSGSKSGTSASLAISGLRSEDEADYYCGAWDYSLSAYVFGGGTKLTVLG | 0.762 | 0.000151 | 199000 |
| #9104v-H31 (antibody, human IgG4 S228P, lambda, V domains shown, Full-length IgG, lambda) VH: EVQLLESGGGLVQPGGSLRLSCAASGFTFSNYYMSWVRQAPGKGLEWVSGVYYGSGTPYYADSVKGRFTISRDNSKNTLYLQMNSLRAEDTAVYYCARDTPGFDYWGQGTLVTVSS VL: QSVLTQPPSASGTPGQRVTISCTGSSSNIGNNAVNWYQQLPGTAPKLLIYYDSHRPSGVPDRFSGSKSGTSASLAISGLRSEDEADYYCGAWDYSLSAYVFGGGTKLTVLG | 0.532 | 0.000141 | 266000 |
| #9104v-H33 (antibody, human IgG4 S228P, lambda, V domains shown, Full-length IgG, lambda) VH: EVQLLESGGGLVQPGGSLRLSCAASGFTFSNYYMSWVRQAPGKGLEWVSGVYYPSGNPYYADSVKGRFTISRDNSKNTLYLQMNSLRAEDTAVYYCARDTPGFDYWGQGTLVTVSS VL: QSVLTQPPSASGTPGQRVTISCTGSSSNIGNNAVNWYQQLPGTAPKLLIYYDSHRPSGVPDRFSGSKSGTSASLAISGLRSEDEADYYCGAWDYSLSAYVFGGGTKLTVLG | 0.517 | 0.000108 | 208000 |
